In publication PMC3741069 (Biochemistry, 2013):
Where a chain is given by its changes, count along the chain named. Numbers in names are those of the source.

B1: nitrate reductase (NarB) (Synechococcus elongatus PCC 7942 = FACHB-805; R160Q) (protein)
chain: MIDTAKTLCPYCGVGCGLEAVPPAQPGRATVRDREGTPIWQIRGDRQHPSSQGMVCVKGATVAESVSKSRLKYPMFRASLDDPFTEISWDEALDRLCDRIQQTQADYGKDGICFYGSGQFQTEDYYIAQKLVKGCLGTNNFDTNSQLCMSSAVSAYSLCLGSDGPPACYEDLDLADCLLIVGSNTAECHPILFNRYRKRHKQGGTNLIVVDPRCTPTAEVADLHLALKPGSDVALLNGLGWLLYQMGYVKKDFIANQTEGFEDWLAIIEDYPPQRTAELTGLAVAELVRAADLIASAQRWLSLWSMGVNQSIQGTAKATSLINLHLLTRQIGLPGCGPFSLTGQPNAMGGRETGGLAHLLPGYRKVIDPQHRADVETIWGLPMGSISPQPGRTAWQMIEGLEQGAVGFLWVAATNPAVSLPDVKRAQAALKRSPFTVLQDAYHPTETTTYAHLLLPAAQWSEKTGTMTNSERRVTLCQAFRQPPGEARADWQIFAEVGRRLGFAFDYTDAAAVFAEYVQVTAGRLCDLSGLSHELLAQAGPQQWPFPAGAEPTTESKRLYTKHHFAYADGRARFQPFHHLGVAEPPDDRYPLVLTVGRLYGHWHTQTRTGRIDKINKLHPSAFVEIHPRDADRYNISEGQAVVIRSRRGEGCFPAKVTTAISPGVLFVPMHWGALWGDRTEANALTHPAACPISGEPELKACAVQIEAASSTFTI
B2: nitrate reductase (NarB) (Synechococcus elongatus PCC 7942 = FACHB-805; K144Q) (protein)
chain: B1 chain with K130Q, Q146R
B3: nitrate reductase (NarB) (Synechococcus elongatus PCC 7942 = FACHB-805) (protein)
chain: B1 chain with Q146R
B4: nitrate reductase (NarB) (Synechococcus elongatus PCC 7942 = FACHB-805; K144R) (protein)
chain: B1 chain with K130R, Q146R

Substrate: O=[N+]([O-])O
Assay: steady-state nitrate reductase assay, Michaelis-Menten fit
Type: biochemical, Synechococcus elongatus
Conditions: saturating reduced ferredoxin (Synechocystis sp. PCC 6803) as electron donor

Row | Protein | Km [µM]
1 | B1 | 2.5 ± 0.3
2 | B2 | 3.3 ± 0.5
3 | B3 | 6.0 ± 1.0
4 | B4 | 5.7 ± 2.5
